Publication PMC6885295, “Soluble Production, Characterization, and Structural Aesthetics of an Industrially Important Thermostable β-Glucosidase from Clostridium thermocellum in Escherichia coli” (BioMed Research International, 2019)

System: T1, OCc1ccccc1O[C@@H]1O[C@H](CO)[C@@H](O)[C@H](O)[C@H]1O
T1 construct: forward primer reads ATG GCA AAG ATA ACT TTC (N-terminus MAKITF, NcoI site may change residue 2)
Test: DNS reducing-sugar assay, Lineweaver-Burk plot
Assay type: biochemical, Acetivibrio thermocellus
Details: 1.5 M Tris-Cl pH 7.0, 50 °C, 30 min, substrate range 2.5-20 mM

## BglA (Acetivibrio thermocellus ATCC 27405; S2A)
  Km: 19.83 mM
